The values that follow come from the Immune Epitope Database (IEDB).

Some results are limits rather than exact numbers.

One assay deals with HLA-B*07:02. The assay is described as follows: IEDB peptide-MHC binding, purified MHC/competitive/fluorescence; ≥ and ≤ were set here for values at or beyond the usual limits of such assays.
Assay [1] addresses HLA-A*02:01. The assay is described as follows: IEDB peptide-MHC binding, purified MHC/competitive/radioactivity; filed as Kd, often an IC50 or EC50 that approximates it; ≥ and ≤ were set here for values at or beyond the usual limits of such assays. The note with it: source organism: Dengue virus 3 Sri Lanka/1266/2000.
In assay [2] the target is HLA-A*02:03. The description is as above. The note with it: source organism: Dengue virus 3 Sri Lanka/1266/2000.
The next assay deals with HLA-A*02:17. Described as above. Particulars: source organism: Dengue virus 3 Sri Lanka/1266/2000.
Assay [3] concerns the target HLA-B*08:01. Described as above. Particulars: source organism: Dengue virus 3 Sri Lanka/1266/2000.
The target in the next assay is HLA-A*01:01. The assay is described as follows: IEDB peptide-MHC binding, purified MHC/direct/fluorescence; filed as Kd, often an IC50 or EC50 that approximates it; ≥ and ≤ were set here for values at or beyond the usual limits of such assays. The note with it: source organism: Camelpox virus M-96.
Assay [4] concerns the target HLA-A*02:01. The description is as above. Particulars: source organism: Camelpox virus M-96.
Assay [5] concerns the target HLA-A*03:01. The assay is described as above. Particulars: source organism: Camelpox virus M-96.
In a further assay the target is HLA-A*26:01. The description is as above. The note with it: source organism: Camelpox virus M-96.
Another assay addresses HLA-A*31:01. The description is as above. Particulars: source organism: Camelpox virus M-96.
A further assay addresses HLA-A*69:01. Described as above. The note with it: source organism: Camelpox virus M-96.
For assay [6], the target named is HLA-B*15:01. The assay is described as above. The note with it: source organism: Camelpox virus M-96.
The target of another assay is HLA-B*15:17. The description is as above. The note with it: source organism: Camelpox virus M-96.
The target of a further assay is HLA-B*27:05. The description is as above. The note with it: source organism: Camelpox virus M-96.
The target in another assay is HLA-B*40:01. The description is as above. Particulars: source organism: Camelpox virus M-96.
Another assay deals with HLA-B*46:01. The assay is described as above. Particulars: source organism: Camelpox virus M-96.
For the next assay, the target named is HLA-B*48:01. Described as above. The note with it: source organism: Camelpox virus M-96.
The next assay addresses HLA-B*57:01. The description is as above. Particulars: source organism: Camelpox virus M-96.
Another assay deals with HLA-B*58:01. Described as above. The note with it: source organism: Camelpox virus M-96.
Assay [7] has as its target HLA-A*02:03. The assay can be described thus: IEDB peptide-MHC binding, purified MHC/competitive/fluorescence; filed as Kd, often an IC50 or EC50 that approximates it; ≥ and ≤ were set here for values at or beyond the usual limits of such assays. Particulars: source organism: Variola virus.
Assay [8] has as its target HLA-A*11:01. The assay is described as above.
Assay [9] concerns the target HLA-B*08:01. Described as above.
The target of assay [10] is HLA-B*15:01. Described as above. The note with it: source organism: Vaccinia virus WR.
The target in another assay is HLA-A*33:01. The assay is described as follows: IEDB peptide-MHC binding, purified MHC/competitive/radioactivity; filed as Kd, often an IC50 or EC50 that approximates it; ≥ and ≤ were set here for values at or beyond the usual limits of such assays. Particulars: source organism: Vaccinia virus WR.
The next assay has as its target HLA-A*68:01. The assay is described as above. The note with it: source organism: Vaccinia virus WR.
In assay [11] the target is HLA-A*03:01. The assay is described as follows: IEDB peptide-MHC binding, purified MHC/competitive/fluorescence; ≥ and ≤ were set here for values at or beyond the usual limits of such assays.
In assay [12] the target is HLA-A*11:01. The description is as above.
The target in a further assay is HLA-A*24:02. Described as above.
The target in assay [13] is HLA-A*02:01. The description is as above.
Assay [14] has as its target HLA-B*15:01. The description is as above.
For a further assay, the target named is HLA-A*24:03. The assay is described as follows: IEDB peptide-MHC binding, purified MHC/direct/fluorescence; filed as Kd, often an IC50 or EC50 that approximates it; ≥ and ≤ were set here for values at or beyond the usual limits of such assays. Particulars: source organism: Vibrio cholerae.
A further assay concerns the target HLA-C*14:02. The assay is described as above.
The target in a further assay is HLA-C*15:02. Described as above.
In the next assay the target is HLA-A*29:02. The assay can be described thus: IEDB peptide-MHC binding, purified MHC/competitive/fluorescence; filed as Kd, often an IC50 or EC50 that approximates it; ≥ and ≤ were set here for values at or beyond the usual limits of such assays. The note with it: source organism: Clostridium botulinum A str. ATCC 3502.
Where [15] appears, read: source organism: Zaire ebolavirus.
Where [16] appears, read: source organism: Vaccinia virus WR.
Setting [17] is: source organism: Sudan ebolavirus.
Setting [18] is: source organism: Vibrio cholerae 2740-80.
[19] abbreviates: source organism: Clostridium botulinum A str. ATCC 3502.

As a reminder, the IC50 is the point on the concentration scale where inhibition reaches its midpoint. Lower therefore signals greater potency. For ADDETSSLP, the IC50 with HLA-B*07:02 (setting [15]) was at least 174 µM.
For orientation: Kd means the free concentration of one partner at which half of the binding sites on the other are occupied at equilibrium, for simple one-to-one binding. In the case of CLMMILPAA, the dissociation constant Kd was 0.00121 µM in the assay with HLA-A*02:01 [1], 0.00105 µM with HLA-A*02:03 [2], 0.438 µM with HLA-A*02:17 and 1.07 µM in the assay with HLA-B*08:01 [3].
As to DILASIIDY, the Kd with HLA-A*01:01 is at least 20 µM; in the assay with HLA-A*02:01 [4] it was at least 20 µM; with HLA-A*03:01 [5], at least 20 µM; with HLA-A*26:01 it was 0.361 µM; in the assay with HLA-A*31:01, at least 20 µM; with HLA-A*69:01, at least 20 µM. In addition, the Kd with HLA-B*15:01 [6] is at least 20 µM; with HLA-B*15:17, 0.299 µM; with HLA-B*27:05, at least 20 µM; in the assay with HLA-B*40:01 it was at least 20 µM; with HLA-B*46:01 it was at least 20 µM; with HLA-B*48:01, at least 20 µM. Further, the dissociation constant Kd in the assay with HLA-B*57:01 was at least 20 µM; with HLA-B*58:01, at least 20 µM; with HLA-A*02:03 [7] it was 1.85 µM; in the assay with HLA-A*11:01 [8] (source organism: Variola virus), at least 20 µM.
Consider EIKDRILSY, for which the Kd with HLA-A*01:01 was at least 20 µM; with HLA-A*02:01 [4], at least 20 µM; in the assay with HLA-A*03:01 [5] it was at least 20 µM; in the assay with HLA-A*26:01, 0.003 µM; with HLA-A*31:01, at least 20 µM; in the assay with HLA-A*69:01, at least 20 µM. The Kd with HLA-B*15:17 is 0.63 µM; with HLA-B*27:05 it was at least 20 µM; in the assay with HLA-B*40:01, at least 20 µM; with HLA-B*48:01, at least 20 µM; with HLA-B*57:01, at least 20 µM; in the assay with HLA-B*58:01, at least 20 µM. The Kd with HLA-A*11:01 [8] (setting [16]) was at least 20 µM; in the assay with HLA-B*08:01 [9] (setting [16]), 2.02 µM; with HLA-B*15:01 [10] it was 0.165 µM; in the assay with HLA-A*33:01, at least 20.5 µM; in the assay with HLA-A*68:01, 0.116 µM.
FVFTLTVPSER returned a Kd with HLA-A*11:01 [8] (source organism: Influenza A virus (A/swine/Hannover/1/1981(H1N1))) of 2.84 µM.
Turning to IFSAWISHR, the IC50 is 1.01 µM with HLA-A*03:01 [11] (source organism: Variola virus), at least 70.7 µM in the assay with HLA-A*11:01 [12] (source organism: Variola virus), 0.0409 µM with HLA-A*24:02 (source organism: Variola virus) and at least 577 µM with HLA-B*07:02 (source organism: Variola virus).
With KLFLESGAV, the IC50 was 1.76 µM with HLA-A*02:01 [13] (setting [15]), at least 280 µM in the assay with HLA-A*03:01 [11] (setting [15]), at least 184 µM with HLA-A*24:02 (setting [15]) and at least 81.3 µM with HLA-B*15:01 [14] (setting [15]).
As for KLYLVDYGL, the IC50 with HLA-A*03:01 [11] (setting [16]) was at least 130 µM; in the assay with HLA-A*24:02 (setting [16]), 16.5 µM; in the assay with HLA-B*15:01 [14] (setting [16]) it was 35.7 µM.
Turning to KQDRSDGYF, in the assay with HLA-B*15:01 [14] (source organism: Vaccinia virus Copenhagen), the IC50 stood at 60.3 µM.
With LFKIDNNTF, the IC50 with HLA-A*24:02 (setting [17]) came to 0.0253 µM; with HLA-B*15:01 [14] (setting [17]) it was 14.4 µM.
In the case of LQVSDVDKL, the IC50 was 5.69 µM in the assay with HLA-A*02:01 [13] (setting [15]) and at least 75.8 µM with HLA-B*15:01 [14] (setting [15]).
In the case of LYKSINVEY, the IC50 in the assay with HLA-A*24:02 (setting [16]) was 0.11 µM; with HLA-B*15:01 [14] (setting [16]) it was 7.65 µM.
Sequence QARRMVQAM displayed a dissociation constant Kd with HLA-B*08:01 [9] (source organism: Influenza A virus (A/Wellington/8/2004(H3N2))) of 0.0863 µM.
As for QLNDTIHLH, the IC50 is 39.9 µM with HLA-A*02:01 [13] (setting [17]), 50.4 µM with HLA-A*03:01 [11] (setting [17]), 6.06 µM in the assay with HLA-A*11:01 [12] (setting [17]) and 53.1 µM with HLA-B*15:01 [14] (setting [17]).
For the sequence RFNNLTVYF, the Kd in the assay with HLA-A*24:03 was 0.0033 µM; with HLA-C*14:02 (setting [18]), 2.86 µM; with HLA-C*15:02 (setting [18]), at least 20 µM.
RPIQNVPGP: the IC50 was at least 465 µM with HLA-A*02:01 [13] (setting [15]) and 28.7 µM with HLA-B*07:02 (setting [15]).
As to RPQKIWMAP, the IC50 with HLA-B*07:02 (setting [15]) came to 7.1 µM.
Regarding SNRTPTVAP, the IC50 with HLA-A*02:01 [13] (setting [15]) was at least 189 µM; with HLA-A*24:02 (setting [15]), at least 94.2 µM; with HLA-B*07:02 (setting [15]), 41.5 µM.
With SPGMVPLHI, the figures for the IC50 with HLA-A*24:02 (setting [17]) and with HLA-B*07:02 (setting [17]) were 24.4 µM and 6.66 µM, respectively.
Take VIILFQRTF: the values for the IC50 with HLA-A*02:01 [13] (setting [15]), with HLA-A*24:02 (setting [15]) and with HLA-B*15:01 [14] (setting [15]) were at least 818 µM, 0.0558 µM and at least 85.9 µM, respectively.
With YMIGYTAYY, the Kd with HLA-C*14:02 (setting [19]) was at most 0.001 µM; in the assay with HLA-C*15:02 (setting [19]), 4.02 µM; in the assay with HLA-A*29:02, at most 0.0001 µM.
